B1: mRNA-splicing (parent)
chain: AGUUGCUGCUGGGAGCUCCAGCACAGUGAAAUGGACAGAAGGGCAGAGCAA

Variants of: B1
Experiment: exon inclusion enrichment index; higher = more inclusion; WT1 exon 5 minigene, HEK293

Variant	exon inclusion enrichment index
G5C C6U G8C C9U U10C G43U C44U	0.567
G5A C6U U7A G8U C9A A39G A40U	0.00682
G5A C6G U7G U10A	0.00101
G5U G8U C9U A29U A30G	0.129
G5A U7C G8A U10C G15C C16A	1.77
G5C C6A U7C G8A U10A G11A G12C	0.495
G5C C6G U7C U10C C22A A23G	3.83
G5A C6U U7A G8U C9A G38U A39C	0.045
G48A	0.46
G5C C6U G8C C9U U10C A23G	2.93
G5C C6A U7C G8A U10A A14G G15U	0.0158
G5C C6G U7C C9G U10C	2.62
G5U G8U C9U C44U	0.0292
C6A U7C C9A U10C C36U A37C	2.39
G5A U7C G8A U10C G21U C22A	0.951
C6A U7C C9A U10C A29C A30U	2.76
G5C C6A U7C G8A U10A A31U U32A	0.00816
G5U G8U C9U A20C G21C	0.0207
C6A U7C C9A U10C G42A G43U	4.39
G5C C6U G8C C9U U10C A40G	1.61
G5C C6G U7C U10C C24G	4.23
G5C C6G U7C U10C A29U A30C	3.05
G5A C6U U7A G8U C9A G26A U27G	0.168
G5A C6G U7G C9A U17C C18G	0.00304

Variant	exon inclusion enrichment index
G5C C6G U7C U10C A29G A30C	2.29
G5U C6A G8C C9U U10C	0.611
G5C C6G U7C U10C A25G G26A	5.6
G5C C6A U7C G8A U10A U27C G28A	0.142
C6A U7C C9A U10C G12U	2.7
C6A U7A C9A U10A A25G G26U	1.43
G5C C6G U7C U10C A37U	3.22
U4A G5A	0.00706
G5A C6G U7G C9A G12U G13A	0.000517
G5A C6G U7G C9A G28U A29C	0.000797
G5A C6G U7C G8C C9A	0.0805
G5C C6A U7C G8A U10A A37G G38C	0.228
G5A U7C G8A U10C G26C U27G	3.53
G5A C6G U7G C9A G26U	0.00112
G5U G8U C9U A35U C36G	0.0125
C6A U7C C9A U10C A35C	1.54
G5A C6G U7G C9A A25U G26C	0.00304
C6A U7A G8A C9A U10A	0.207
C6A U7A C9A U10A A31G U32A	2.95
C6A U7A C9A U10A A31G U32C	2.27
G5A C6G U7G C9A G21U C22A	0.00074
G5C C6G U7C U10C G12C	0.252
G5A C6G U7G C9A A14G G15U	0.00301
G5A C6G U7G C9A A14G G15A	0.00342

Variant	exon inclusion enrichment index
G5A C6G U7G C9A A31U U32A	0.000867
G5A C6G U7G C9A A31U U32C	0.00119
G5A U7C G8A U10C A25U	2.57
C6A U7C C9U U10A	0.0495
U4A G5C C6U G8C C9U U10C	1.68
G8C	1.33
G5A C6U U7A G8U C9U	0.0721
G5A C6U U7A G8U C9A G42C G43U	0.352
C6A U7C C9A U10C C16U	3.55
C6A U7A C9A U10A C16U U17A	0.291
C6A U7A C9A U10A U17G C18A	0.619
G21A	1.75
G5A C6G U7G C9A U27C G28A	0.00952
G5A C6U U7A G8U C9A U17C C18A	0.0363
G5C C6U G8C C9U U10C G34U A35G	0.537
G5C C6U G8C C9U U10C G33A	0.198
G5U G8U C9U G41C G42U	0.643
G5C C6G U7C U10C C22A	3.06
G5A C6U U7A G8U C9A G13C A14G	0.145
G5A U7C G8A C9A	0.923
G5A C6G U7G C9A C16G U17A	0.00122
C6A U7A C9A U10A G21U	0.507
U3A G5C C6U G8C C9U U10C	2.74
A40C	0.557

Variant	exon inclusion enrichment index
G5C C6U G8C C9U U10C C36U A37G	1.74
C6A U7C C9A U10C C22U A23C	2.11
A39G A40C	0.199
G2C G5C C6U G8C C9U U10C	1.41
G5A C6U U7A G8U C9A G13U A14G	0.00922
C6A U7C C9A U10C C19U A20C	3.08
C6A U7C C9A U10C G26U U27A	2.38
G5A C6U U7A G8U C9A G13A	0.144
G5C C6U G8C C9U U10C A25U	2.6
C6A U7G G8U C9A U10C	0.407
G5C C6A U7C G8A U10A A20U G21C	0.0942
C6A U7A C9A U10A A23C C24A	0.907
G5A U7C G8A U10C G13A A14C	2.98
G5A U7C G8A U10C G13A A14G	2.19
G5U G8U C9U G13A A14C	0.61
A35U	0.0139
C6A U7A G8U C9U U10A	0.00366
G5A U7C G8A U10C G34C	0.949
G26U	0.137
G5A C6U U7C G8A C9A	0.442
G33A G34C	0.0101
G5U G8U C9U C22G A23C	0.0377
G5A C6U U7A G8U C9A A45C G46C	0.0306
G5C C6A U7C G8A U10A C22G A23G	0.043

Variant	exon inclusion enrichment index
G5A C6G U7G C9A G42U G43U	0.00686
G5C C6U U7A G8U C9U U10C	0.663
G5U G8U C9U C36U	0.0293
U3C G5A U7C G8A U10C	1.28
G5A C6G U7A G8A C9A	0.0263
G5A C6G U7G C9A C19A	0.00105
U4G G5A C6G U7C U10C	2.22
G5U C6G U7C G8U C9U	0.349
G5A C6U U7A G8U C9A A37C G38U	0.00922
G5A C6U U7A G8U C9A A37C G38C	0.0761
G5C C6G U7C U10C A23C	2.88
G5A C6G U7G C9A G11A G12C	0.00102
G5C C6U G8C C9U U10C A20G G21C	1.71
G5C C6U G8C C9U U10C A20G G21U	2.01
G5A U7C G8A U10C A14C	1.69
G5U U7G G8A C9U	1.04
G5A C6G U7G C9A G15A C16G	0.00097
G5U G8U C9U G12C	0.0449
G2U U3A G5A C6G U7G C9A	0.0451
G5C C6U G8C C9U U10C A14U G15C	0.66
G5U G8U C9U C18A C19A	0.00397
G5U G8U C9U C18A C19G	0.00406
G5A C6G U7G C9A A23C C24G	0.0142
A37U	0.121

Variant	exon inclusion enrichment index
U10C G11C	1.66
G5A U7C G8A U10C A31C	2.89
G5U G8U C9U A47C	0.283
G5A C6G U7G C9A U32G G33C	0.00522
G5A C6U U7A G8U C9A A23U C24A	0.0228
G5U G8U C9U G12U G13A	0.000421
G5U G8U C9U A20G	0.322
G5U G8U C9U A14U G15C	0.0163
A29C	0.0903
G5A C6U U7A G8U C9A G33U G34C	0.00527
G5A C6U U7A G8U C9A G33U G34U	0.0031
G5A U7C G8A U10C A45U G46A	1.75
G5C C6G U7C U10C U32A	3.12
C6A U7A C9A U10A A30U	0.433
A25U G26U	0.0827
G5C C6A U7C G8A U10A U32G G33A	0.00787
G5A C6U U7A G8U C9A A31U U32G	0.0286
G5A C6G U7G C9A A39C	0.00101
C6A U7A C9A U10A A31C U32G	1.02
G5C C6A U7C G8C C9U U10C	1.98
C6A U7C C9A U10C U27G G28U	0.0137
G5C C6A U7C G8A U10A G38C A39U	0.00505
G5A C6G U7G C9A U10G	0.00589
G5C C6A U7C G8A U10A G33A G34U	0.00646

Variant	exon inclusion enrichment index
U4G G5U C6A U7C G8A U10A	0.093
G2U U3C G5U G8U C9U	0.965
U4A G5A C6U G8C C9U U10C	0.574
G5C C6G U7G G8U U10C	1.74
C6A U7C C9A U10C G11U	3.07
C6A U7A C9A U10A C16G	0.188
C18U C19U	0.0838
C6A U7C C9A U10C G42C	4.02
C6A U7C C9A U10C A47C G48U	3.09
G5C C6U G8C C9U U10C A45C G46A	1.12
G5C C6U G8C C9U U10C A45C G46U	0.726
G5C C6G U7C U10C C16A U17G	3.25
G5A C6G U7G C9A U17G	0.00284
C6U U7C U10C	3.52
G5C C6G U7C U10C A40C	3.66
G5A U7C G8A U10C G42A G43U	4.5
G5A U7C G8A U10C G42A G43C	4.19
G5A C6G U7G C9A G46U A47U	0.00177
G5C C6A U7C G8A U10A C36A	0.0935
G34U A35U	0.0144
G5A C6U U7A G8U C9A A20G	0.102
G5C C6G U7C U10C G11A G12A	1.91
G5C C6U G8C C9U U10C A39G	0.96
